In the supplement of paper PMC10126150:
± gives the standard deviation of the averaged measurements.

Tested on: ATP
Test: switch fluorescence ratio, 500 uM ATP over buffer (Cy3 cluster intensity, sum of 5 cycles each) (fold (ratio)); higher = stronger signal-on switching upon ATP binding; sequences stand for … in TCGTCGGCAGCGTCAGATGTGTATAAGAGACAGTTTTTTTTTTTTTTTTTTTTTTTTT…TC
Settings: aptamer strand: ATP DNA aptamer (quencher-CACCTGGGGGAGTATTGCGGAGGAAGG + anchor), 100 nM annealed; ATP concentration: 500 uM
Summary of the method: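 Imaging in selection buffer was followed by imaging after 15 min with 500 uM ATP at 22 °C, for Cy3-labelled switching-strand clusters annealed to 100 nM quencher-labelled ATP aptamer on a modified Illumina MiSeq flow-cell. Five of these buffer/ATP cycles ran, separated by NaOH stripping and re-annealing. The fluorescence ratio per cluster is summed target-cycle over summed buffer-cycle Cy3 intensity, averaged per switch-domain sequence; clusters outside 100-1000 RFU were removed.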
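Also: ATP exposure 15 min at 22 °C before imaging.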

| Sequence | switch fluorescence ratio |
| --- | --- |
| TTGGGCCGTT | 1.01 ± 0.035 |
| TTGGGCCTCT | 1.01 ± 0.029 |
| TTGGGCGACG | 1.036 ± 0.0032 |
| TTGGGCGCGG | 1 ± 0.031 |
| TTGGGCTGGG | 1.01 ± 0.026 |
| TTGGGCTTTC | 1.04 ± 0.03 |
| TTGGGGAACA | 1.014 ± 0.008 |
| TTGGGGAACG | 1.41 ± 0.62 |
| TTGGGGAAGA | 1.02 ± 0.029 |
| TTGGGGATGC | 1.33 ± 0.23 |
| TTGGGGCCCA | 1 ± 0.022 |
| TTGGGGCCGG | 1.003 ± 0.0095 |
| TTGGGGGATG | 0.985 ± 0.0088 |
| TTGGGGGCAA | 1.57 ± 0.84 |
| TTGGGGGGAG | 0.99 ± 0.027 |
| TTGGGGGGTG | 1.04 ± 0.14 |
| TTGGGGTAAT | 1.01 ± 0.022 |
| TTGGGGTACA | 0.9895 ± 0.0051 |
| TTGGGGTAGC | 1.01 ± 0.036 |
| TTGGGGTATT | 1.01 ± 0.025 |
| TTGGGGTGAG | 0.981 ± 0.022 |
| TTGGGGTGCA | 0.99 ± 0.018 |
| TTGGGGTTAA | 1.03 ± 0.058 |
| TTGGGGTTCA | 0.9752 ± 0.0084 |
| TTGGGGTTTG | 0.975 ± 0.038 |

| Sequence | switch fluorescence ratio |
| --- | --- |
| TTGGGTAATA | 1.05 ± 0.087 |
| TTGGGTATGA | 1.01 ± 0.037 |
| TTGGGTCCAA | 0.983 ± 0.017 |
| TTGGGTGATC | 1.01 ± 0.049 |
| TTGGGTGCTA | 1.09 ± 0.16 |
| TTGGGTGCTG | 1.01 ± 0.032 |
| TTGGGTGGGA | 0.986 ± 0.044 |
| TTGGGTGGGG | 1 ± 0.049 |
| TTGGGTGTCT | 0.988 ± 0.057 |
| TTGGGTGTGC | 1.02 ± 0.061 |
| TTGGGTTCGG | 0.987 ± 0.038 |
| TTGGGTTCGT | 0.998 ± 0.037 |
| TTGGGTTCTT | 0.9937 ± 0.0066 |
| TTGGGTTGTG | 1.01 ± 0.041 |
| TTGGTAAAGT | 1.03 ± 0.071 |
| TTGGTAGAAT | 1.01 ± 0.014 |
| TTGGTATACG | 0.997 ± 0.026 |
| TTGGTATAGC | 1.003 ± 0.01 |
| TTGGTATTAT | 0.986 ± 0.02 |
| TTGGTCAATC | 1.04 ± 0.024 |
| TTGGTGCCGT | 1.13 ± 0.046 |
| TTGGTGCTTG | 1 ± 0.041 |
| TTGGTGGCTT | 0.968 ± 0.03 |
| TTGGTGGGGA | 0.987 ± 0.042 |
| TTGGTGGGGC | 0.98 ± 0.02 |

| Sequence | switch fluorescence ratio |
| --- | --- |
| TTGGTGTGTT | 1.01 ± 0.013 |
| TTGGTGTTGG | 1.01 ± 0.044 |
| TTGGTTACGT | 1 ± 0.039 |
| TTGGTTATAC | 1.12 ± 0.046 |
| TTGGTTCAAG | 1.013 ± 0.0027 |
| TTGGTTCCGT | 1.01 ± 0.026 |
| TTGGTTCGGA | 0.993 ± 0.015 |
| TTGGTTCTGG | 0.962 ± 0.038 |
| TTGGTTGAGG | 0.974 ± 0.02 |
| TTGGTTGGGT | 0.997 ± 0.041 |
| TTGGTTGGTG | 1.03 ± 0.11 |
| TTGGTTTAAG | 1 ± 0.027 |
| TTGGTTTGCT | 1.005 ± 0.0045 |
| TTGGTTTGGC | 1.01 ± 0.019 |
| TTGTAAAATG | 0.996 ± 0.013 |
| TTGTAATGAG | 1.04 ± 0.065 |
| TTGTAATGGG | 0.988 ± 0.019 |
| TTGTACGCCC | 1.24 ± 0.2 |
| TTGTACTTGG | 1.04 ± 0.072 |
| TTGTAGAGCT | 0.949 ± 0.017 |
| TTGTAGGGAA | 1.03 ± 0.013 |
| TTGTAGGGGA | 1.04 ± 0.06 |
| TTGTAGTTG | 0.9952 ± 0.0062 |
| TTGTAGTTTG | 0.977 ± 0.0071 |
| TTGTATATTT | 0.982 ± 0.02 |

| Sequence | switch fluorescence ratio |
| --- | --- |
| TTGTATCTTT | 1.03 ± 0.011 |
| TTGTATGTAG | 1.02 ± 0.021 |
| TTGTATTGGT | 1.04 ± 0.11 |
| TTGTCACAGG | 1.09 ± 0.056 |
| TTGTCACGGG | 1.02 ± 0.05 |
| TTGTCAGACT | 0.9801 ± 0.0028 |
| TTGTCATGGG | 0.958 ± 0.011 |
| TTGTCATTGG | 0.992 ± 0.019 |
| TTGTCATTTA | 0.992 ± 0.031 |
| TTGTCCTAGT | 1.008 ± 0.0012 |
| TTGTCCTCCT | 1.11 ± 0.11 |
| TTGTCCTGGG | 1.02 ± 0.012 |
| TTGTCGGGTG | 1.03 ± 0.089 |
| TTGTCTTTGG | 1.01 ± 0.041 |
| TTGTGAAGGC | 1.04 ± 0.015 |
| TTGTGAAGGG | 0.9663 ± 0.0013 |
| TTGTGAATTT | 1.28 ± 0.43 |
| TTGTGACATA | 1 ± 0.023 |
| TTGTGAGGCA | 1.006 ± 0.0066 |
| TTGTGCGCAG | 1 ± 0.029 |
| TTGTGCGGGT | 1.02 ± 0.049 |
| TTGTGGCGTT | 0.984 ± 0.0045 |
| TTGTGGGAAA | 1.02 ± 0.016 |
| TTGTGGGAAG | 0.976 ± 0.034 |
| TTGTGGGGAA | 1.12 ± 0.2 |
